Reference: US20180362625A1 (COMMONWEALTH SCIENTIFIC AND INDUSTRIAL RESEARCH ORGANISATION, published 2018)

Target: T1, interferon response factor 3 (IRF3), endogenous in HeLa cells (human, UniProt Q14653 1-427)
T1 construct: Phosphorylation state after poly(I:C) was not defined for the immunoprecipitated material
T1 sequence (looked up): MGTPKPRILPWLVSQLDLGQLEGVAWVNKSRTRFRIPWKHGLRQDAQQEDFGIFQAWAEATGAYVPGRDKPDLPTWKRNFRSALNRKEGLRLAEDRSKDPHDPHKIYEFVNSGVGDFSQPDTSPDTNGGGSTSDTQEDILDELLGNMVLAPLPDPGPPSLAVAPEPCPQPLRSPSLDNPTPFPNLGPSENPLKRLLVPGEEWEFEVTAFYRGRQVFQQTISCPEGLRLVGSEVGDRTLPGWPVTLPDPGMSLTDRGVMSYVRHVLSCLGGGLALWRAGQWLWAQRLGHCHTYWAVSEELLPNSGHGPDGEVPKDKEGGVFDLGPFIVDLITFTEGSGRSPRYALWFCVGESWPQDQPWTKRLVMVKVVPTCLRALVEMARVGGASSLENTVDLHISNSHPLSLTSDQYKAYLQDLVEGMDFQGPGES
Test: co-immunoprecipitation from HeLa lysates with immobilised anti-IRF3 antibody, western blot, -/+ poly(I:C)
Experimental: Immunoprecipitation and cell fractionation: For immunoprecipitation, 25 μg of antibody was coupled to 50 μg of agarose beads using the Pierce direct immunoprecipitation kit as specified by the manufacturers (Life Technologies). Cells were lysed in NP-40 lysis buffer provided and pre-cleared with a non-specific isotype agarose control at 4° C. for 1 hour, then incubated with ˜1.5 μg agarose-coupled antibody at 4° C. overnight. Resin was washed multiple times then elution performed using non-reducing sample buffer (containing 2% w/v SDS) at 100° C. for 10 mins. Cytosolic and nuclear fractions were prepared from cells using the Pierce NE-PER cell fractionation kit (Life Technologies) as specified by the manufacturers, and total protein quantitated by BCA assay (Life Technologies) before western blot analyses.
To access whether C6orf106 binds IRF3, C6orf106-flag was co-expressed with GFP −/+ poly(I:C) as described above, then performed a direct co-immunoprecipitation with immobilised IRF3 antibodies. As shown in FIG. 10A C6orf106 could be detected in IRF3-immunoprecipitated lysates, and this was increased approximately four-fold in the presence of poly(I:C). […] Cells were lysed and subjected to […] immunoprecipitation with an anti-IRF3 antibody. IP samples and input controls were probed with anti-FLAG antibody for western blotting. […]

B1: Flag-tagged C6orf106 (C6orf106-FLAG, expressed from pCAGGs-C6-FLAG) (other)
chain: MEGMDVDLDPELMQKFSCLGTTDKDVLISEFQRLLGFQLNPAGCAFFLDMTNWNLQAAIGAYYDFESPNISVPSMSFVEDVTIGEGESIPPDTQFVKTWRIQNSGAEAWPPGVCLKYVGGDQFGHVNMVMVRSLEPQEIADVSVQMCSPSRAGMYQGQWRMCTATGLYYGDVIWVILSVEVGGLLGVTQQLSSFETEFNTQPHRKVEGNFNPFASPQKNRQSDENNLKDPGGSEFDSISKNTWAPAPDTWAPAPDQTEQDQNRLSQNSVNLSPSSHANNLSVVTYSKGLHGPYPFGQSGDYKDDDDK
notes: Over-expressed in HeLa or HEK293T cells and tested in cell lysates by co-immunoprecipitation
  fold increase of C6orf106 co-immunoprecipitated with IRF3 in the presence of poly(I:C) versus without: ~4 fold
